Measurements published in patent US20100286027A1, “ANTI-BACTERIAL COMPOSITIONS” (priority 2008, published 2010).
Values after ≈ are worked out from the molar mass of the structure shown.

Assays:
[1] = test system: H. influenzae NB65027-CDS0021* (TolC efflux pump mutant); test: MIC against aerobic gram negative bacteria, efflux pump mutant; format: cell-based, Haemophilus influenzae
[2] = test system: E. coli NB27005* (TolC efflux pump mutant); test: as above; format: cell-based, Escherichia coli
H. influenzae NB65027 [3] = test: microbe, parasite or virus in culture; conditions: Haemophilus influenzae, NB65027, read-out: minimal inhibitory concentration (MIC)
P. aeruginosa NB52019 = test: MIC against aerobic gram negative bacteria; format: cell-based, Pseudomonas aeruginosa
[4] = test system: P. aeruginosa NB52020* (mexAB/oprM efflux pump mutant); test: MIC against aerobic gram negative bacteria, efflux pump mutant; format: cell-based, Pseudomonas aeruginosa
E. coli NB27004 = test: MIC against aerobic gram negative bacteria; format: cell-based, Escherichia coli
[5] = test system: Pseudomonas aeruginosa (27853); test: BacTiter-Glo bacterial ATP content viability assay; conditions: gram −, +/− SD, n = 3, >100 = activity detected but <50% inhibition
[6] = test system: Stenotrophomonas maltophilia (17666); test: BacTiter-Glo bacterial ATP content viability assay; conditions: gram −, +/− SD, n = 3, >100 = activity detected but <50% inhibition
H. influenzae NB65027 [7] = conditions: aerobic gram negative
Bacillus Subtilis (6633) = test: BacTiter-Glo bacterial ATP content viability assay; conditions: Bacillus Subtilis (6633), gram +; +/− SD, n = 3; >100 = activity detected but <50% inhibition
[8] = test system: Listeria monocytogenes (7644); test: BacTiter-Glo bacterial ATP content viability assay; conditions: Listeria monocytogenes (7644), gram +; +/− SD, n = 3; >100 = activity detected but <50% inhibition
L. monocytogenes = test: Bacterial growth inhibition (FIG. 15); format: cell-based, Listeria monocytogenes; conditions: FIG. 15 Panel C
[9] = test system: Enterococcus faecalis (29212); test: BacTiter-Glo bacterial ATP content viability assay; conditions: Enterococcus faecalis (29212), gram +; +/− SD, n = 3; >100 = activity detected but <50% inhibition
[10] = test system: Staphylococcus aureus (29213); test: BacTiter-Glo bacterial ATP content viability assay; conditions: Staphylococcus aureus (29213), gram +; +/− SD, n = 3; >100 = activity detected but <50% inhibition
Escherichia coli (8739) = test: BacTiter-Glo bacterial ATP content viability assay; conditions: gram −, +/− SD, n = 3, >100 = activity detected but <50% inhibition
[11] = test system: lawn of the indicated bacteria; test: Agar diffusion assay; conditions: FIG. 11 Panel D; 0.5 mg/ml in sterile PBS per well
[12] = test system: Salmonella choleraesuis (13076); test: BacTiter-Glo bacterial ATP content viability assay; conditions: gram −, +/− SD, n = 3, >100 = activity detected but <50% inhibition
[13] = test system: Klebsiella pneumoniae (700603); test: BacTiter-Glo bacterial ATP content viability assay; conditions: gram −, +/− SD, n = 3, >100 = activity detected but <50% inhibition
[14] = test system: Streptococcus pneumoniae (49619); test: BacTiter-Glo bacterial ATP content viability assay; conditions: gram +, +/− SD, n = 3, >100 = activity detected but <50% inhibition
Escherichia coli (25922) = test: BacTiter-Glo bacterial ATP content viability assay; conditions: gram −, +/− SD, n = 3, >100 = activity detected but <50% inhibition
E. coli = test: Bacterial growth inhibition (FIG. 15); format: cell-based, Escherichia coli; conditions: FIG. 15 Panel B
[15] = Escherichia coli, read-out: minimal inhibitory concentration (MIC)
[16] = Pseudomonas aeruginosa, read-out: minimal inhibitory concentration (MIC)

CN(C)[C@@H]1C(O)=C(C(N)=O)C(=O)[C@@]2(O)C(O)=C3C(=O)c4c(O)cccc4[C@@](C)(O)[C@H]3C[C@@H]12 [Tetracycline, reference compound]
MIC ([1]; Haemophilus influenzae, read-out: minimal inhibitory concentration (MIC)): 0.5 µg/mL (≈ 1.13 µM)
MIC [2, 15]: 0.5 µg/mL (≈ 1.13 µM)
MIC (H. influenzae NB65027 [3]): 0.5 µg/mL (≈ 1.13 µM)
MIC (P. aeruginosa NB52019; [16]): 32 µg/mL (≈ 72 µM)
MIC [4, 16]: 1 µg/mL (≈ 2.25 µM)
MIC (E. coli NB27004; [15]): 4 µg/mL (≈ 9 µM)

B1: Nod1: purified recombinant LRR domain of Nod1; human NOD1-LRR is SEQ ID NO: 4 (protein, listed as Homo sapiens)
chain: NKDHFQFTNLFLCGLLSKAKQKLLRHLVPAAALRRKRKALWAHLFSSLRGYLKSLPRVQVESFNQVQAMPTFIWMLRCIYETQSQKVGQLAARGICANYLKLTYCNACSADCSALSFVLHHFPKRLALDLDNNNLNDYGVRELQPCFSRLTVLRLSVNQITDGGVKVLSEELTKYKIVTYLGLYNNQITDVGARYVTKILDECKGLTHLKLGKNKITSEGGKYLALAVKNSKSISEVGMWGNQVGDEGAKAFAEALRNHPSLTTLSLASNGISTEGGKSLARALQQNTSLEILWLTQNELNDEVAESLAEMLKVNQTLKHLWLIQNQITAKGTAQLADALQSNTGITEICLNGNLIKPEEAKVYEDEKRIICF
antibacterial activity by bacterial ATP content (IC50), [LRR domain] [5]: >100 microgram/ml
antibacterial activity by bacterial ATP content (IC50), [LRR domain] [6]: >100 microgram/ml
minimal inhibitory concentration (MIC) (H. influenzae NB65027 [7]): >128 microgram/ml
antibacterial activity by bacterial ATP content (IC50), [LRR domain] (Bacillus Subtilis (6633)): 15.5 +/− 12.0 microgram/ml
antibacterial activity by bacterial ATP content (IC50), [LRR domain] [8]: 32.0 +/− 2.1 microgram/ml
L. monocytogenes growth (L. monocytogenes): inhibited
antibacterial activity by bacterial ATP content (IC50), [LRR domain] [9]: >100 microgram/ml
minimal inhibitory concentration (MIC) ([1]; aerobic gram negative, H. influenzae NB65027-CDS0021*, TolC efflux pump mutant strain): 4 microgram/ml
minimal inhibitory concentration (MIC) ([2]; aerobic gram negative, E. coli NB27005*, TolC efflux pump mutant strain): 32 microgram/ml
antibacterial activity by bacterial ATP content (IC50), [LRR domain] [10]: 111.3 +/− 13.0 microgram/ml
antibacterial activity by bacterial ATP content (IC50), [LRR domain] (Escherichia coli (8739)): 29.0 +/− 2.8 microgram/ml
anti-bacterial activity by agar diffusion assay [11]: Anti-bacterial activity
antibacterial activity by bacterial ATP content (IC50), [LRR domain] [12]: >100 microgram/ml
antibacterial activity by bacterial ATP content (IC50), [LRR domain] [13]: 30.8 +/− 4.9 microgram/ml
minimal inhibitory concentration (MIC) (P. aeruginosa NB52019): >128 microgram/ml
antibacterial activity by bacterial ATP content (IC50), [LRR domain] [14]: 13.5 +/− 4.9 microgram/ml
antibacterial activity by bacterial ATP content (IC50), [LRR domain] (Escherichia coli (25922)): >100 microgram/ml
minimal inhibitory concentration (MIC) ([4]; aerobic gram negative, P. aeruginosa NB52020*, mexAB/oprM efflux pump mutant strain): >128 microgram/ml
E. coli growth (E. coli): inhibited
minimal inhibitory concentration (MIC) (E. coli NB27004): >128 microgram/ml
